B1: GST-SEC24C_(196-314)(LCR-FG-LCR) (domain or fragment)
chain: HPGIQTPQRSAPSQASSFTPPASGGPRLPSMTGPLLPGQSFGGPSVSQPNHVSSPPQALPPGTQMTGPLGPLPPMHSPQQPGYQPQQNGSFGPARGPQSNYGGPYPAAPTFGSQPGPPQ
B2: GST-CPSF6_(261-358)(LCR-FG-LCR) (domain or fragment)
chain: SDIIPTTENLYFQGAIAEIPIFGLKAGQTPPRPPLGPPGPPGPPGPPPPGQVLPPPLAGPPNRGDRPPPPVLFPGQPFGQPPLGPLPPGPPPPVPGYGPPPGPPPPQQGPPPPPG
B3: GST-NUP153_(1306-1450)(LCR-FG-LCR) (domain or fragment)
chain: FGTGPSAPSASPAFGANQTPTFGQSQGASQPNPPGFGSISSSTALFPTGSQPAPPTFGTVSSSSQPPVFGQQPSQSAFGSGTTPNSSSAFQFGSSTTNFNFTNNSPSGVFTFGANSSTPAASAQPSGSGGFPFNQSPAAFTVGSN

This test addresses Native HIV-1 cores (mature CA lattice of hexamers and pentamers) (HIV-1).
On to B1, for which the affinity, expressed as Kd, was 0.81 µM.
The same measure for B2: 0.89 µM; for B3: 0.31 µM.

As a reminder, the Kd is the constant that tells how readily two partners part at equilibrium. Read a low Kd as higher affinity.

These data come from PMC9537594 (2022).
